Experimental data from the supplement of paper PMC10065799, “High-throughput profiling of sequence recognition by tyrosine kinases and SH2 domains using bacterial peptide display” (eLife, 2023).

Legend:
c-Src SH2 = assay: SH2 binding enrichment of the phosphorylated peptide, bacterial display (enrichment ratio); higher = better substrate or ligand; peptides without Tyr show the background
Grb2 SH2 = Grb2 SH2 (UniProt P62993); assay: as above
SHP2-C SH2 = assay: as above
FGFR3 = FGFR3 (UniProt P22607); assay: phosphorylation enrichment, bacterial display (enrichment ratio); higher = better substrate or ligand; peptides without Tyr show the background
Fer (mouse) = assay: as above
EPHB1 = EPHB1 (UniProt P54762); assay: as above
Jak2 = Jak2 (UniProt O60674); assay: as above
MERTK = MERTK (UniProt Q12866); assay: as above
AncSZ = assay: as above
Hck = Hck (UniProt P08631); assay: as above
Fyn = Fyn (UniProt P06241); assay: as above
EPHB2 = EPHB2 (UniProt P29323); assay: as above
FGFR1 = FGFR1 (UniProt P11362); assay: as above
c-Abl (mouse) = assay: as above
c-Src = assay: as above
Fes = Fes (UniProt P07332); assay: as above
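For SH2 binding enrichment of the phosphorylated peptide, bacterial display in this document: peptide library displayed on the E. coli surface as eCPX fusions, selected cells deep-sequenced, score is each peptide's frequency after selection divided by its frequency in the input.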
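For phosphorylation enrichment, bacterial display in this document: 11-residue human phosphosite peptides and single-mutation variants displayed on the E. coli surface, counted by deep sequencing, each peptide's frequency after selection divided by its frequency in the unselected input library; frequency after pTyr selection over input frequency; kinase dosed for 20-30% of maximal phosphorylation in three min.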

Chain of FGFR1 (P11362 whole entry, looked up): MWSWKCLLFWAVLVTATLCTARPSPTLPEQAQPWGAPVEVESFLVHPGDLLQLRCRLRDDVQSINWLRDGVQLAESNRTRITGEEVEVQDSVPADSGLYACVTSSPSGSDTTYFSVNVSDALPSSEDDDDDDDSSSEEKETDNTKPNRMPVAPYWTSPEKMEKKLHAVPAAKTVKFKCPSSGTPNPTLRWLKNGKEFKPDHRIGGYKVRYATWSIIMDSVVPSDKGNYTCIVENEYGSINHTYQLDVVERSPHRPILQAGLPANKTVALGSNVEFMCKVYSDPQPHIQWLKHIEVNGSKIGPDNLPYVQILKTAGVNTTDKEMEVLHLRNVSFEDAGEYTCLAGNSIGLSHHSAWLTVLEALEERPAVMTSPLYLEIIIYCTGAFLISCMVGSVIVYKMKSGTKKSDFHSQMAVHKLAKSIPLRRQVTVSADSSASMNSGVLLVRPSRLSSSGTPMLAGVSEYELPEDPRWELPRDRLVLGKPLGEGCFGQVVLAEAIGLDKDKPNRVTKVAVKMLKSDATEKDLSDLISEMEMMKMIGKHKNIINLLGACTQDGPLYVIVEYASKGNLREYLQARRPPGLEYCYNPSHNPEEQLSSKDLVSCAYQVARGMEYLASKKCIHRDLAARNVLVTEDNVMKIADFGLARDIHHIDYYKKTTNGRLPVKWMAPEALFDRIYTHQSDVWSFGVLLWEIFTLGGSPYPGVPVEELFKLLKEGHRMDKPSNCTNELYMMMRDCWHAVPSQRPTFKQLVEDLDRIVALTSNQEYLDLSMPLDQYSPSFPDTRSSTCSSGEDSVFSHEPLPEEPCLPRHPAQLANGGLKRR
Chain of Fes (P07332 whole entry, looked up, the tested form may be a part): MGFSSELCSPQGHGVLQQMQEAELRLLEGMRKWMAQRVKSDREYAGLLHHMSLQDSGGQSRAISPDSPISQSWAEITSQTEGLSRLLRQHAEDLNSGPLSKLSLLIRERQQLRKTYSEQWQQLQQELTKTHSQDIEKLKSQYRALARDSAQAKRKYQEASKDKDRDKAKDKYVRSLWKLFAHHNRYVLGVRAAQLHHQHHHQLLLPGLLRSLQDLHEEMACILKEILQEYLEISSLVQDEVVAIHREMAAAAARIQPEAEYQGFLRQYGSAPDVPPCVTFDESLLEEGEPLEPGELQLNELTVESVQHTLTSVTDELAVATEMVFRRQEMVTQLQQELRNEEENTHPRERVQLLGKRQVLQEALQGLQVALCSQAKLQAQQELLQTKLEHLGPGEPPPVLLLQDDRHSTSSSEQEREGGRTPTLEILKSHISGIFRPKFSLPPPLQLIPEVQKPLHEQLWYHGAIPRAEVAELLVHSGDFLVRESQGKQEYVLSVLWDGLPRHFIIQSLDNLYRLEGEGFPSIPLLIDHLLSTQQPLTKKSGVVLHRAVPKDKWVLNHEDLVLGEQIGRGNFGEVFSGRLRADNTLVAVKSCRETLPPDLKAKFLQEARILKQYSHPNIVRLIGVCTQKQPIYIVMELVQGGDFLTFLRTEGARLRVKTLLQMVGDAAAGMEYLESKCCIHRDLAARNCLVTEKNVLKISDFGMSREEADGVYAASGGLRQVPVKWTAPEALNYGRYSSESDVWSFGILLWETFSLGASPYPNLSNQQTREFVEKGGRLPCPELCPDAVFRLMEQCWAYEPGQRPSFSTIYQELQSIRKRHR
Chain of MERTK (Q12866 whole entry, looked up): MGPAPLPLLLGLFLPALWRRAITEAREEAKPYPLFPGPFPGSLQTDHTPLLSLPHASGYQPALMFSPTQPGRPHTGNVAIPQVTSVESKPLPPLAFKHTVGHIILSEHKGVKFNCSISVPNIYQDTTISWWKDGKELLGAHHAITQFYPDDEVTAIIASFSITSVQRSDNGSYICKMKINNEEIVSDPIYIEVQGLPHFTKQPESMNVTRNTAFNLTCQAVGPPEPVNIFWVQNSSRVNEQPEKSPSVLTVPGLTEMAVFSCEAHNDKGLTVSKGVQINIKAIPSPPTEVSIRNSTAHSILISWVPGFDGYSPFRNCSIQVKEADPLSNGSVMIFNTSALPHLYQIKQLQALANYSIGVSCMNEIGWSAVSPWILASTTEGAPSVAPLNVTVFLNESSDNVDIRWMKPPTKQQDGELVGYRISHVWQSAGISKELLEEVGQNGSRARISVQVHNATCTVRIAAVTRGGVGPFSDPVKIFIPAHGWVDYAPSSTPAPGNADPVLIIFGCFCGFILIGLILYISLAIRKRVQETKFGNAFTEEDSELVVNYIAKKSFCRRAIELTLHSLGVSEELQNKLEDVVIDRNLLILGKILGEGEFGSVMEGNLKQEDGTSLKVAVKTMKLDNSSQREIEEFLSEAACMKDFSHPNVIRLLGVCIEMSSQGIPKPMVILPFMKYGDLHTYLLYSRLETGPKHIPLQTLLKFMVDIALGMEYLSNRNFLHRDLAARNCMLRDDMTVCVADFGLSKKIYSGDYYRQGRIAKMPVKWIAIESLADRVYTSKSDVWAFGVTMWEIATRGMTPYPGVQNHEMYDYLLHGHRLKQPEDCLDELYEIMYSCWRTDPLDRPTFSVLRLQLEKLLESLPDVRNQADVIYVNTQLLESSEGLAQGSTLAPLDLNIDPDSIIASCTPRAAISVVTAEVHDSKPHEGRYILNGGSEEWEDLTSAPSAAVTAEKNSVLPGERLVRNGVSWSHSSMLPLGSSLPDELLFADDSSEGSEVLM
Chain of Hck (P08631 whole entry, looked up): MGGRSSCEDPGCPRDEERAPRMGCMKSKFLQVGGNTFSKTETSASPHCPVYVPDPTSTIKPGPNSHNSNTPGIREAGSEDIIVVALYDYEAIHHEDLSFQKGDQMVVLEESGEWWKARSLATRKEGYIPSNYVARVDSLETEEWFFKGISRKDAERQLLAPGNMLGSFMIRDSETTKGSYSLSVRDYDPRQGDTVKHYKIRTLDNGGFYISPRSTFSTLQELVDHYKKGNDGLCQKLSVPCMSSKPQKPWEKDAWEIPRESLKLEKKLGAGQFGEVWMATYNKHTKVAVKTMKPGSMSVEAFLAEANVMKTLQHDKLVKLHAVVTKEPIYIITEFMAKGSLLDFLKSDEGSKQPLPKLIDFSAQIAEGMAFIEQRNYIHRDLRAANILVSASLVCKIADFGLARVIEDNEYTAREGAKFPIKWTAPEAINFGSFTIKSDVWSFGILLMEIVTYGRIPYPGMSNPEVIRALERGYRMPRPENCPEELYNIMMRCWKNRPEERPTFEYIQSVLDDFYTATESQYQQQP
Chain of FGFR3 (P22607 whole entry, looked up): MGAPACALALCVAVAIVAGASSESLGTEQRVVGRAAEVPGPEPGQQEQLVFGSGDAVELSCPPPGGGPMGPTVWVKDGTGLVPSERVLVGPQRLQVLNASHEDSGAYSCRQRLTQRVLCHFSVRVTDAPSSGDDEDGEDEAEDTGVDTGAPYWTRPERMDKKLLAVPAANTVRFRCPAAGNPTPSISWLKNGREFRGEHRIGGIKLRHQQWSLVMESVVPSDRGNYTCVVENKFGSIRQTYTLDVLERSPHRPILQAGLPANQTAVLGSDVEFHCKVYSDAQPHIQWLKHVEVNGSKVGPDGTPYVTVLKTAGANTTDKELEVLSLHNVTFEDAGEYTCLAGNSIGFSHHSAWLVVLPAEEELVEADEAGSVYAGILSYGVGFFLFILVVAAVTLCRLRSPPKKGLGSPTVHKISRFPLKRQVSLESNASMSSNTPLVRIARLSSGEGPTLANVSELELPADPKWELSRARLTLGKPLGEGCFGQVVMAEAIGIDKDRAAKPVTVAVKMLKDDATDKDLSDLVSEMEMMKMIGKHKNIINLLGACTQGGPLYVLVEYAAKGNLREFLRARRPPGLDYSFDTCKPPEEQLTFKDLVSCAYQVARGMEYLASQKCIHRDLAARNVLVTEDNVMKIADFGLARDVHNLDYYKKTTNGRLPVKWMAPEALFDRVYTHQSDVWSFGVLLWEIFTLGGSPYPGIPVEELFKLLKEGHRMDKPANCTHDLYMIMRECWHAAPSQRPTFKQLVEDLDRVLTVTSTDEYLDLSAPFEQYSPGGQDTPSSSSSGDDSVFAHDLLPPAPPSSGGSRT
Chain of EPHB2 (P29323 whole entry, looked up): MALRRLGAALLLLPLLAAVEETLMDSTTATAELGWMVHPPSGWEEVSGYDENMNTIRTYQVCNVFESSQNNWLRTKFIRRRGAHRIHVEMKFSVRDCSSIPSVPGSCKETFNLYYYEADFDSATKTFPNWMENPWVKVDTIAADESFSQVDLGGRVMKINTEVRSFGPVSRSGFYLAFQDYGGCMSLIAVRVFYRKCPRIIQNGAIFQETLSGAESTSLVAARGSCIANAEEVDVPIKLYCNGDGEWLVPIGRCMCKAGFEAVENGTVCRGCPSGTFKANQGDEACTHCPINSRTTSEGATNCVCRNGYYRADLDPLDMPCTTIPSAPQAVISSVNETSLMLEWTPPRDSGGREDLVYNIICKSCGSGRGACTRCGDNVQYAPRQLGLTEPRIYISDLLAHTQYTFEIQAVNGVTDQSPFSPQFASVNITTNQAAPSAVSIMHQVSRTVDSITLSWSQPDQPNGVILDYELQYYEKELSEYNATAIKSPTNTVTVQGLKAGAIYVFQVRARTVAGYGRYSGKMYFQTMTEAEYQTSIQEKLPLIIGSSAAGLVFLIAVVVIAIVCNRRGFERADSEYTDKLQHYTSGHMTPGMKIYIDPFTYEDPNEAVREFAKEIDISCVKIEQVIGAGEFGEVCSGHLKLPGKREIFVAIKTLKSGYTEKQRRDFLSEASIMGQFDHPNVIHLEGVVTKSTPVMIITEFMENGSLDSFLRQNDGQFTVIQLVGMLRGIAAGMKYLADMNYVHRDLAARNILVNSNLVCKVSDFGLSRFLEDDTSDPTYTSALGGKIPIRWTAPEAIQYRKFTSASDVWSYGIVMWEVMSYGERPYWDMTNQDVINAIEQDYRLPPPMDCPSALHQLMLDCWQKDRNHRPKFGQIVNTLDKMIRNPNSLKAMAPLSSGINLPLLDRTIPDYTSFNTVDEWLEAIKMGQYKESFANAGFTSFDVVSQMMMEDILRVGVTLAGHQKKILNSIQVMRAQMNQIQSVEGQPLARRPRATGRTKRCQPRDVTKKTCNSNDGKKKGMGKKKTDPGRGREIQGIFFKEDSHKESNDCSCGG

Sequence	SH2 binding enrichment (c-Src SH2)	SH2 binding enrichment (Grb2 SH2)	SH2 binding enrichment (SHP2-C SH2)	phosphorylation enrichment (FGFR3)	phosphorylation enrichment (Fer (mouse))	phosphorylation enrichment (EPHB1)	phosphorylation enrichment (Jak2)	phosphorylation enrichment (MERTK)	phosphorylation enrichment (AncSZ)	phosphorylation enrichment (Hck)	phosphorylation enrichment (Fyn)	phosphorylation enrichment (EPHB2)	phosphorylation enrichment (FGFR1)	phosphorylation enrichment (c-Abl (mouse))	phosphorylation enrichment (c-Src)	phosphorylation enrichment (Fes)
LDLSYYTTSSS [EMD_Y182_P183T]	1.49	0.73	0.64	1.21	0.635	0.978	1.93	0.731	1.84	1.01	0.967	0.863	1.07	0.982	0.908	1.36
WFKKFYDANCD [MAPRE2_Y158_Y162C]	0.513	0.848	0.78	0.707	0.453	0.77	0.948	0.35	1	0.475	0.46	0.426	0.472	0.749	0.397	1.21
ERDFTYEELLN [EIF2S2_Y176_YF]	0.69	1.14	0.715	0.692	0.69	0.628	1.01	0.492	1.23	0.855	0.678	0.515	0.527	0.66	0.675	1.12
EEVGIYRVSGV [BCR_Y1089]	0.491	0.732	0.521	0.647	0.504	0.488	0.794	0.575	1.04	3.09	4.31	0.434	0.457	14.1	4.45	0.919
DRLASYSDKVR [KRT10_Y160_L161S]	0.521	1.04	0.667	0.419	0.322	0.366	0.503	0.43	0.578	0.387	0.41	0.365	0.454	0.42	0.445	0.553

Continued, in another order:

SH2 binding enrichment (c-Src SH2)	SH2 binding enrichment (Grb2 SH2)	SH2 binding enrichment (SHP2-C SH2)	Sequence	phosphorylation enrichment (FGFR3)	phosphorylation enrichment (Fer (mouse))	phosphorylation enrichment (EPHB1)	phosphorylation enrichment (Jak2)	phosphorylation enrichment (MERTK)	phosphorylation enrichment (AncSZ)	phosphorylation enrichment (Hck)	phosphorylation enrichment (Fyn)	phosphorylation enrichment (EPHB2)	phosphorylation enrichment (FGFR1)	phosphorylation enrichment (c-Abl (mouse))	phosphorylation enrichment (c-Src)	phosphorylation enrichment (Fes)
1.23	0.958	0.895	RPPELYALMSD [ZAP70_Y569_C564R]	1.36	1.17	14.6	2.28	15.2	2.05	2.17	1.28	3.94	1.44	1.81	1.84	2.19
0.413	1.02	0.595	TTHRGYDSDNP [MMUT_Y146_A141T]	0.823	0.423	0.685	0.699	0.53	0.744	0.665	0.685	0.532	0.542	0.642	0.389	0.859
0.347	0.579	0.526	NGRTGDVLQPE [PLCG2_Y1036_Y1036D]	0.669	0.464	0.598	0.903	0.454	0.971	0.496	0.39	0.468	0.404	0.777	0.428	1.05
